According to the supplement of paper PMC9170038:

Tested on: MS2 coat protein
Assay: apparent KD of MS2 coat protein; higher = weaker reporter binding
Conditions: Eterna round: R107; input ligand: theophylline 20 uM
Experimental: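 RNA-MaP round R107: designed RNA switches with theophylline, tryptophan, arginine or FMN aptamers are transcribed on-chip within common flanks. They are titrated with SNAP-549-labelled MS2 coat protein in RNA-MaP buffer (100 mM Tris pH 7.5, 80 mM KCl, 4 mM MgCl2), without ligand or with the indicated ligand. Median apparent KD per design.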

Compared with “GUUAUAUACUCGGCCGCCACUGAGAGAGUCAUGUAAACAUGAGGAUCACCCAUGUAAUAUAUAUACAGGACCGGGAGUAUGGUAA [4.E]”, “AUAUUUAACGGAAGGAGCGCGGAUAAUAAAGUGGGUAAACAUGAGGAUCACCCAUGUAAACCGCAGGUAGGUCGCCGAUAUAUAU [AstrosEXyARgB#7]” is 2.9-fold higher in “apparent KD of MS2 coat protein” value: 18.6 nM for the first, 54.8 nM for the second.

Compared with “UCGCCCGGGUCGGCCGCCACUGAGGUGAUGUGACAUGAGGAUCACCCAUGUUGUCAUGUGGCACAUAGGACCGGGACCCGGGCGA [Exclusion - Tryptophan B Attempt #3 (HarryS)]”, “AAAUAAUAUUAAUUAAUUAUAUUAUUCUGACGAGGACCGGUACGGCCGCCACUCGGCCCAUGGUACAUGAGGAUCACCCAUGUCU [Same State - Tryptophan A]” is 2.4-fold lower in “apparent KD of MS2 coat protein” value: 41 nM for the first, 17.2 nM for the second.

“UGUAUGUGAUCUGAUACCAGAGUGACGCGAAAGCGAUAACCUGAGGAUCACCCUGGUAAACUCCCUUGGCAGCAGAUCGCAUACU” and “AAUUAAACAUCGGCCGCCACUUACUCAUGAGGUAACAACAUGAGGAUCACCCAUGUUUGAGGAUCAAGGACCGGGAUGUAAUUUU [AstrosSSTryB#3]” are within 1.5-fold of each other in “apparent KD of MS2 coat protein” value: 60.2 nM for the first, 40.3 nM for the second.

First: ACACAUGACAGAAGGAGCGGAAUGAACACACAUGAGGAUCACCCAUGUUUUUUUUGUGUUUUCCAGGUAGGUCGCUGACAUGAGG [#20 Same State - Arginine B]
Second: GUAUAGUCUCGAAGGAGCGUCACAUGAGGAUCACCCAUGUACAUGAGGAUCACCCAUGUGUGGCAGGUAGGUCGCGAGCUAUACC [Exclusion Arginine B GF8]
The “apparent KD of MS2 coat protein” value of the first is 11-fold lower: 20.7 nM for the first, 228 nM for the second.

“AUGGCGUUGGUGAGGCGGUUUAAUGGCGAUACCAGCGUGGAAACACGCCCUUGGCAGCGCCAAAACAUGAGGAUCACCCAUGUUA [Budejovice]” and “UGGCGAGAAGGAAGGAGCGUCAGCUGAGUUACAUGAGGAUCACCCAUGUUUUACAUUGUGUGACAGGUAGGUCGCCUUCUGCCCU [SS-ArgB20]” are within 1.5-fold of each other in “apparent KD of MS2 coat protein” value: 28 nM for the first, 18.8 nM for the second.

Compared with “AUAACAUGAGGAUCACCCAUGUAUUGGUUACGAGGACCGGUACGGCCGCCACUCGUAUUAUAGUGGUAUUUUGUUUAUAUGAUAA [JR_Nu_TrtptoA_Sub019]”, “UCAAUACAGUCGGCCGCCACUGUAACCAAACCUACAUACCAACAUGAGGAUCACCCAUGUUUAUACAGGACCGGGACCUCUAUGA [theeternabot_sameState_MS2_Trp_B_10]” is 2.3-fold higher in “apparent KD of MS2 coat protein” value: 20 nM for the first, 45.8 nM for the second.

First: AUACAUGAGGAUCACCCAUGUGAUGGCCGGCGAGGACCGGUACGGCCGCCACUCGUGAUCCGUCCCGAGAGCAAAGCUCUCGACA [Raatala]
Second: CCCAAGCCAGCUGAUACCAGUGACGUGGUCAGAAUGUGCGACAUGAGGAUCACCCAUGUACACCCUUGGCAGCAGUAGAACGGUU [theeternabot_exclusion_MS2_Theo_B_47]
The “apparent KD of MS2 coat protein” value of the first is 23-fold higher: 436 nM for the first, 18.9 nM for the second.

First: UGGGUAGCAUAGAUUGAUAGUUAAACUGAAGGAGCGAGAAUAAUCUCAGGUAGGUCGCAGACAUGAGGAUCACCCAUGUAGAUGG [Same State Arginine A GF16]
Second: AAAUAAAUACAUGAGGAUCACCCAUGUGAAGGAGCGCCCGUUAGGGCAGGUAGGUCGCACAUGAACUCCAAAGUGCAAAAGCACA [ArgEX 17 #OpenEnded]
The “apparent KD of MS2 coat protein” value of the first is 4.3-fold higher: 129 nM for the first, 29.7 nM for the second.

Compared with “UGGGUCGGAUGAGUAAAUUGUCGGACUCAUCGAGGACCGGUACGGCCGCCACUCGGUUGUACAUGAGGAUCACCCAUGUCAGGGU [#1 Same State - Tryptophan A Attempt #17 (HarryS)]”, “AUGUAGCCGUCGACUGUACCUUAUGCCGAUACCAGCUACCCGUGAAGCCCUUGGCAGCGGGAAACAUGAGGAUCACCCAUGUCAG [theeternabot_exclusion_MS2_Theo_A_13]” is 11-fold lower in “apparent KD of MS2 coat protein” value: 336 nM for the first, 29.6 nM for the second.

In the case of “UUCAGACAUGAGGAUCACCCAUGUACUGAAGGAGCGGAUAAAUAUCCAGGUAGGUCGCAGUAUUGAGGGUCUACUUCCAGUCUUU [Reoruser]”, the “apparent KD of MS2 coat protein” value is reported as 11.9 nM.

Same assay, conditions: Eterna round: R107; input ligand: theophylline 2 mM

Compared with “GGCGUCGGGCGAAGGAGCGUGAAGACAUGAGGAUCACCCAUGUAGAGGCCCGAACAGGGUUCGCAGGUAGGUCGCGCGCGGUGCC [#1 Same State - Arginine B Attempt #6 (HarryS)]”, “GCAUCCUAGUCGGCCGCCACUGCAUGUAGUUUUGCUACAUGGAAACAUGAGGAUCACCCAUGUAGCAGGACCGGGACUAGGAUGC [(Trp1)-(TM)''-(TM)'-(Ms2)-(Trp2)_Design7]” is 1.7-fold higher in “apparent KD of MS2 coat protein” value: 21.4 nM for the first, 36 nM for the second.

Compared with “AAGCGGGCGACGGCCGCCACUUGCCUGUAAUUAGAGAAGGCACAUGAGGAUCACCCAUGUCCCGCAAGGACCGGGUUGCCUCACU [Ditiraorce]”, “ACAUGAGGAUCACCCAUGUCAGGGCACGAUACCAGCUGAUCCGAUGGCCCUUGGCAGCGUUACGUGUGGUCAUGAGGAUCACCCG [pjbmullin]” is 7.6-fold lower in “apparent KD of MS2 coat protein” value: 580 nM for the first, 76.8 nM for the second.

First: CGCAACAUGAGGAUCACCCAUGUAAUGACGCGAGGACCGGUACGGCCGCCACUCGCCUGCCAAUGAGCGCAUGCGGCCUGGGUAU [Exclusion Tryp A GF7]
Second: AUACAUGAGGAUCACCCAUGUGAUGGCCGGCGAGGACCGGUACGGCCGCCACUCGUGAUCCGUCCUGAGAGCAAAGCCCUCAGCA [Onedti]
The “apparent KD of MS2 coat protein” value of the first is 18-fold lower: 13.5 nM for the first, 237 nM for the second.

First: CAACUGCUUGAGCUUACUUAUUGGACUUCCCGAGGACCGGUACGGCCGCCACUCGCAGGGACACAUGAGGAUCACCCAUGUAAAG [theeternabot_exclusion_MS2_Trp_A_42]
Second: ACAUGAGGAUCACCCAUGUAAUGGCACGAUACCAGCUGAUCCCGUGGCCCUUGGCAGCGUCCGGUGUGGUCCGCCGGGUUGGACC [HHHMULLIN]
The “apparent KD of MS2 coat protein” value of the first is 1.6-fold lower: 19.6 nM for the first, 31.1 nM for the second.

First: AAUAGCAUGAGGAUCACCCAUGUAAAAGAUACCAGAGUGAUGAUCCUCCCUUGGCAGCUUAACGCUGAUUGAUUACAAUCAGCGA
Second: GGUACAUGAGGAUCACCCAUGUAUGCGAGCCGAGGACCGGUACGGCCGCCACUCGCUUAACAUGAGGAUCACCCAUGUUUCUCGG [SSTA DOUBLE!!! :-D #15]
The “apparent KD of MS2 coat protein” value of the first is 1.9-fold higher: 229 nM for the first, 120 nM for the second.

First: AAUUGGGUUGGUGAGGUGGUUGGAGGCGAUACCAGCGUGGAAACACGCCCUUGGCAGCGCCAGGACAUGAGGAUCACCCAUGUAA [Praha]
Second: CCUAUGCAGUCGGCCGCCACUGAACAUGAGGAUCACCCAUGUUAUUAUAAAUAUGGUCCUAAAAUCAGGACCGGGACUGUAUAGG [Ex Tryptophan B 8]
The “apparent KD of MS2 coat protein” value of the first is 7.9-fold higher: 713 nM for the first, 90 nM for the second.

Going from “UGGGUCGGAUGAGUAAAUUGUCCGACGUAUCGAGGACCGGUACGGCCGCCACUCGGUUGUACAUGAGGAUCACCCAUGUCAGGGU [#1 Same State - Tryptophan A Attempt #16 (HarryS)]” to “GUUAUAUACUCGGCCGCCACUGAGAGAGUCAUGUAAACAUGAGGAUCACCCAUGUAAUAUAUAUACAGGACCGGGAGUAUGGUAA [4.E]”, the “apparent KD of MS2 coat protein” value falls from 536 nM to 14 nM (38-fold).

Going from “AUAUUUAACGGAAGGAGCGCGGAUAAUAAAGUGGGUAAACAUGAGGAUCACCCAUGUAAACCGCAGGUAGGUCGCCGAUAUAUAU [AstrosEXyARgB#7]” to “UCGCCCGGGUCGGCCGCCACUGAGGUGAUGUGACAUGAGGAUCACCCAUGUUGUCAUGUGGCACAUAGGACCGGGACCCGGGCGA [Exclusion - Tryptophan B Attempt #3 (HarryS)]”, the “apparent KD of MS2 coat protein” value falls from 51.2 nM to 16.8 nM (3-fold).

“AAAUAAUAUUAAUUAAUUAUAUUAUUCUGACGAGGACCGGUACGGCCGCCACUCGGCCCAUGGUACAUGAGGAUCACCCAUGUCU [Same State - Tryptophan A]” and “UGUAUGUGAUCUGAUACCAGAGUGACGCGAAAGCGAUAACCUGAGGAUCACCCUGGUAAACUCCCUUGGCAGCAGAUCGCAUACU” are within 1.5-fold of each other in “apparent KD of MS2 coat protein” value: 18.9 nM for the first, 24 nM for the second.

For “AAUUAAACAUCGGCCGCCACUUACUCAUGAGGUAACAACAUGAGGAUCACCCAUGUUUGAGGAUCAAGGACCGGGAUGUAAUUUU [AstrosSSTryB#3]”, the “apparent KD of MS2 coat protein” value was 35.1 nM.
